# Laboratory results from the RNAGym collection of RNA variant scans (doi:10.1021/acssynbio.7b00057).
# B1: Pistol ribozyme (parent)
# chain: GGGUCGUUGUUCCAUAAUCGCGUGGAUAUGGCACGCAAGUUUCUACCGGGCACCGUAAAUGUCCGACUGGAGCCGUUCGGGCGGCUAUAAACAGACCUCAGGCCCGAAGCGUGGCGGCACCUGCCGCCGGUGGUAAAAAAGAUCGGAAGAGCACACGUCU
# Variants of: B1
# Assay: aptazyme ON/OFF ratio, guanine; higher = stronger switching; co-transcriptional cleavage with and without guanine
row,Variant,aptazyme ON/OFF ratio
1,U7A U8A G9A U10C U11G C12G,1.23
2,U7A U8A G9A U10C U11G C12A,1.12
3,U7A U8A G9A U10A U11A C12U C13G,1.23
4,U7A U8A G9A U10A U11A C12U C13A,1.17
5,U7A U8A G9A U10A U11A C12U C13U,1.14
6,U7A U8A G9A U10G U11G C12A,1.18
7,U7A U8A G9A U10G U11G C12G,1.52
8,U7A U8A G9A U10G U11G C12U,1.33
9,U7A U8A G9A U11A C12U C13G,1.23
10,U7A U8A G9A U11A C12U C13A,1.07
11,U7A U8A G9A U11A C12U C13U,1.22
12,U7A U8A G9A U10G U11G C12A C13A,1.2
13,U7A U8A G9A U10G U11G C12A C13G,1.29
14,U7A U8A G9A U10G U11G C12A C13U,1.29
15,U7A G9U U10G U11G C12U C13G,1.15
16,U7A G9U U10G U11G C12U C13A,1.26
17,U7A G9U U10G U11G C12U C13U,1.51
18,U7A U8A G9A U10A C12A C13G,1.23
19,U7A U8A G9A U10A C12A C13A,1.11
20,U7A U8A G9A U10A C12A C13U,1.09
21,U7A U8A G9A U10C U11G C12G C13G,1.15

row,Variant,aptazyme ON/OFF ratio
1,U7A U8A G9A U10C U11G C12G C13U,1.08
2,U7A U8A G9A U10C U11G C12G C13A,1.11
3,U7A U8A G9A U10C U11C C12A C13A,1.12
4,U7A U8A G9A U10C U11C C12A C13U,1.07
5,U7A U8A G9A U10C U11C C12A C13G,1.04
6,U7A U8A G9A U11C C12A C13U,1.22
7,U7A U8A G9A U11C C12A C13G,1.14
8,U7A U8A G9A U11C C12A C13A,1.17
9,U7A U8A G9A U10A U11A C12G C13U,1.13
10,U7A U8A G9A U10A U11A C12G C13G,1.28
11,U7A U8A G9A U10A U11A C12G C13A,1.14
12,U7A G9U U11G C12A C13U,1.22
13,U7A G9U U11G C12A C13G,1.36
14,U7A G9U U11G C12A C13A,1.18
15,U7A U8A G9A U10A U11G C12A C13G,1.24
16,U7A U8A G9A U10A U11G C12A C13A,1.16
17,U7A U8A G9A U10A U11G C12A C13U,1.24
18,U7A G9U U10G U11C C12A C13U,1.24
19,U7A G9U U10G U11C C12A C13G,1.12
20,U7A G9U U10G U11C C12A C13A,1.14
21,U7A G9U U11A C12U C13G,1.28

row,Variant,aptazyme ON/OFF ratio
1,U7A G9U U11A C12U C13A,1.41
2,U7A G9U U11A C12U C13U,1.22
3,U7A U8A G9A U11C,1.03
4,U7A U8A G9A U11A,1.16
5,U7A U8A C13U,1.69
6,U7A U8A C13G,1.22
7,U7A U8A C13A,1.38
8,U7A U8A G9A U10G U11A C12U,1.03
9,U7A U8A G9A U10G U11A C12A,1.15
10,U7A U8A G9A U10G U11A C12G,1.13
11,U7A U8A G9A U10A U11A C12G,1.27
12,U7A U8A G9A U10A U11A C12U,1.17
13,U7A U8A G9A U10A U11A C12A,1.26
14,U7A U8A G9A U10G U11G C12U C13U,1.14
15,U7A U8A G9A U10G U11G C12U C13G,1.31
16,U7A U8A G9A U10G U11G C12U C13A,1.25
17,U7A U8A G9A U10C U11G,1.14
18,U7A U8A G9A U10C U11A,1.22
19,U7A U8A G9A U10C U11C,1.03
20,U7A U8A G9A C12U C13U,1.17
21,U7A U8A G9A C12U C13A,1.11

row,Variant,aptazyme ON/OFF ratio
1,U7A U8A G9A C12U C13G,1.12
2,U7A G9U U10G U11C,1.06
3,U7A G9U U10G U11G,1.1
4,U7A U8A G9A U11A C12U,1.35
5,U7A U8A G9A U11A C12G,1.24
6,U7A U8A G9A U11A C12A,1.26
7,U7A G9U U10G U11A C13A,1.09
8,U7A G9U U10G U11A C13U,1.05
9,U7A G9U U10G U11A C13G,1.08
10,U7A U8A G9A U10G C12U C13A,1.05
11,U7A U8A G9A U10G C12U C13U,0.929
12,U7A U8A G9A U10G C12U C13G,1.17
13,U7A U8A G9A U10A U11C C13A,1.05
14,U7A U8A G9A U10A U11C C13G,1.06
15,U7A U8A G9A U10A U11C C13U,1.08
16,U7A U8A G9A U10C U11A C12U C13U,1.03
17,U7A U8A G9A U10C U11A C12U C13G,1.16
18,U7A U8A G9A U10C U11A C12U C13A,1.1
19,U7A U8A G9A C12G C13G,1.12
20,U7A U8A G9A C12G C13A,1.09
21,U7A U8A G9A C12G C13U,1.14
